From patent US20090156490A1
Where no end group is shown, it is not given here. bis‑dPEG6 = hexa-ethylene glycol bifunctional linker (bis-dPEG6 NHS ester)

T1: 33-mer gliadin peptide (non-deamidated, α2-gliadin residues 57-89)
T1 chain: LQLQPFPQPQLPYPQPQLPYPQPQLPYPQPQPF


Key:
[1] = target: soluble HLA-DQ2 heterodimer (purified, thrombin-treated DQ2-ligand fusion protein) (human); assay: peptide exchange kinetics (HPSEC, fluorescein-labelled peptide, soluble DQ2), pH 7.3
[2] = target: soluble HLA-DQ2 heterodimer (purified, thrombin-treated DQ2-ligand fusion protein) (human); assay: peptide exchange kinetics (HPSEC, fluorescein-labelled peptide, soluble DQ2)
[3] = target: T1, 33-mer gliadin peptide (non-deamidated, …)
[4] = target: soluble HLA-DQ2 heterodimer (purified, thrombin-treated DQ2-ligand fusion protein) (human); assay: peptide exchange assay (HPSEC, fluorescein-labelled peptide 0.18 µM, soluble DQ2 4.7 µM, 37 C, 45 h), pH 5.5

Binder | maximum occupancy [1] [%] | time to half maximal DQ2 occupancy [2] [h] | kcat/KM of deamidation [3] | binding maximum (DQ2 bound peptide as a percentage of total peptide) [4] [%]
{5(6)‑carboxyfluorescein}-LQLQPFPQPELPYPQPELPYPQPELPYPQPQPF (not fully specified) [33-mer peptide 1 (deamidated 33-mer from α2-gliadin)] | 28 | 8 |  | 
human tissue transglutaminase (tTGase) (protein) AEELVLERCDLELETNGRDHHTADLCREKLVVRRGQPFWLTLHFEGRNYEASVDSLTFSVVTGPAPSQEAGTKARFPLRDAVEEGDWTATVVDQQDCTLSLQLTTPANAPIGLYRLSLEASTGYQGSSFVLGHFILLFNAWCPADAVYLDSEEERQEYVLTQQGFIYQGSAKFIKNIPWNFGQFEDGILDICLILLDVNPKFLKNAGRDCSRRSSPVYVGRVVSGMVNCNDDQGVLLGRWDNNYGDGVSPMSWIGSVDILRRWKNHGCQRVKYGQCWVFAAVACTVLRCLGIPTRVVTNYNSAHDQNSNLLIEYFRNEFGEIQGDKSEMIWNFHCWVESWMTRPDLQPGYEGWQALDPTPQEKSEGTYCCGPVPVRAIKEGDLSTKYDAPFVFAEVNADVVDWIQQDDGSVHKSINRSLIVGLKISTKSVGRDEREDITHTYKYPEGSSEEREAFTRANHLNKLAEKEETGMAMRIRVGQSMNMGSDFDVFAHITNNTAEEYVCRLLLCARTVSYNGILGPECGTKYLLNLNLEPFSEKSVPLCILYEKYRDCLTESNLIKVRALLVEPVINSYLLAERDLYLENPEIKIRILGEPKQKRKLVAEVSLQNPLPVALEGCTFTVEGAGLTEEQKTVEIPDPVEAGEEVKVRMDLLPLHMGLHKLVVNFESDKLKAVKGFRNVIIGPA |  |  | kcat/KM=440 min-1 mM-1 | 
{5(6)‑carboxyfluorescein}-PQPELPYPQ (not fully specified) [peptide 3 (minimal αII epitope)] |  |  |  | 7
{5‑(and 6-)carboxyfluorescein}-LQLQPFPQPEK(bis‑dPEG6)PYPQPELPY (also: dimer: two copies crosslinked through Lys11 side chains via hexa-ethylene glycol linker) | 40 | 2.5 |  | 
